Measurements taken from patent US7662404B2, “Transdermal delivery system for dried particulate or lyophilized peptides and polypeptides” (TransPharma Medical Ltd., priority 2002, dated 2010).
Read-outs that look alike come from different tables or passages of the source. Blank lines part the entries; values can stand above or below the compound they belong to.

Experiments:
[1] = rat, in vivo
From the text: • Animals: Rats, males, 250 gr, Sprague Dawley, hypophysectomized at Harlan USA labs. […] This fraction was spread on a hypoallergenic clear medical tape (Kendall Curity®, Emergency Medical Products Inc., USA) in doses specified below, and placed directly onto the skin as a transdermal patch. […]
The transdermal groups (1 and 2) received a treatment including: Shaving, drying, baseline Trans Epidermal Water Loss measurement (TEWL; DERMALAB® Cortex Technology, Hadsund, Denmark), two ViaDerm applications of 200 micropores/cm^2 (placebo for Group 2), second TEWL measurement and patch application. At the end of the study all animals were sacrificed by an IV overdose of sodium-pentobarbital (140 mg/kg). • ViaDerm parameters: burst length—500 μsec, starting amplitude—250 V, number of bursts—5 and applications per site—2 (200 micropores/cm^2). • Blood sampling: Blood samples (0.5 ml/rat) were withdrawn at 6 time points, t=0, 2, 4, 6, 12 and 24 hours, from the tail end of anesthetized rats (20 mg/rat ketamine, intramuscular). • Serum analysis: rhGH in the serum was detected using an Elisa kit (DSL-10-1900; Diagnostic Systems Laboratories, TX, USA) specific for rhGH. […] IGF-1 was detected according to RIA protocol (Endocrine, Vol. 16, no. 1, 1-6, October 2001). […]

[2] = Bioavailability of rhGH printed patches with ViaDerm in guinea pigs (Example 5); format: in vivo
Procedure: (§1) ViaDerm micro-channeling apparatus was used. The density of the microelectrode array used in these studies was 100 microelectrodes/cm^2. The device was applied twice on each location, so the density of the micro channels was 200/cm^2. The skin was treated with an applied voltage of 330V, frequency of 100 kHz, two bursts, 700 microsecond burst length, and no current limitation.
(§2) Male Guinea pigs (500-800 grams, Dunkin Hartley, Harlan laboratories Ltd., Israel) and Male rats (350-400, Sprague Dawley, Harlan laboratories Ltd., Israel), were premedicated with IP injections of 10% ketamin/2% xylazine solution at a ratio of 70:30, 1 ml/kg. Anesthesia was maintained with either isofluorane or halothane gas. The abdominal skin hair was shaved carefully, and was cleaned with isopropyl alcohol. After 30 min, transepidermal water loss, measurements (TEWL, Dermalab Cortex Technology, Hadsund, Denmark) were performed to check skin integrity. Skin micro channeling was performed by the use of the ViaDerm instrument with the conditions described above. TEWL was then measured again to control the operation. The treated skin was covered with the rhGH patches and blood samples were withdrawn from a preinserted carotid cannula in guinea pig or from the rat's tail at predetermined times post application. The serum was separated by centrifugation and analyzed for rhGH by Elisa kit (DSL-10-1900, Diagnostic Systems Laboratories, Inc. Webster, Tex., USA). The transdermal delivery of rhGH was compared to that of subcutaneous hGH delivery.

[3] = tested on: IGF-1; test: IGF-1 in the serum of hypophysectomized rats after rhGH (Example 3); format: in vivo
From the text: GH is produced by the pituitary gland (hypophysis) and acts in several ways and on several targets. A distinctive role attributed to GH is the induction of IGF-1 production by liver cells (hepatocytes). As GH is the main trigger for the production of IGF-1, the activity of GH can be detected by measuring IGF-1 levels in the blood. GH levels in the blood can be directly analyzed as well.
Results 1. rhGH in the Serum

[4] = rhGH in serum after printed patches and ViaDerm, hypophysectomized rats (Example 4); format: in vivo
Procedure: The materials and methods applied in this example were similar to those in EXAMPLE 3 except from the following points: • a) The animals were treated with ELTROXIN™ and hydrocortisone only until 10 days before initiating the treatments. • b) The test article was a printed patch of rhGH in two doses: 0.15 mg/patch and 0.5 mg/patch. The patches were composed of a backing liner (DOW BLF2080™, The Dow Chemical Company, MI, USA) on which drops of GENOTROPIN® were evenly placed. All the patches contained 144 drops over an area 1.4×1.4 cm^2. The printed patch was attached to the skin by a fixing patch, 2 cm×2 cm with 300 μm thick (wet) glue (DURO-TAK™ 3872516; National Starch & Chemical Pty Ltd, NSW, Australia) on the backing liner. • c) The experimental setup included 2 groups of 3 rats each: • Group 1: Treated with ViaDerm+one 0.15 mg printed patch. • Group 2: Treated with ViaDerm+one 0.5 mg printed patch. Results 1. Printed Patches

[5] = Bioavailability of rhGH printed patches with ViaDerm in normal rats (Example 5); format: in vivo
Procedure: as §1, §2

[6] = tested on: blood glucose; test: Bioactivity of insulin in diabetic rats: blood glucose after printed patches or SC (Example 6); format: in vivo
Procedure: as §1, with “ViaDerm” for “ViaDerm micro-channeling”
Male rats (300-325, Sprague Dawley, Harlan laboratories Ltd., Israel) were deprived of food and received water as libitum 48 hr prior to patch applications. Streptozotocin (55 mg/kg in citric buffer, 0.1 M, pH 4.5) was injected intraperitonally (IP) to the rats 24 hr prior to patch applications in order to induce diabetes. […] The diabetic rats were premedicated with IP injections of 10% ketamin/2% xylazine solution at a ratio of 70:30, 1 ml/kg. Anesthesia was maintained with either isofluorane or halothane gas. The abdominal skin hair was shaved carefully, and was cleaned with isopropyl alcohol. After 30 min, transepidermal water loss measurements (TEWL, Dermalab Cortex Technology, Hadsund, Denmark) were performed to check skin integrity. Skin micro-channeling was performed by the use of the ViaDerm instrument with the conditions described above. TEWL was then measured again to control the operation. The treated skin was covered with Lispro (HUMALOG®) or Regular (HUMULIN®R) 1.5 IU insulin-printed patches. SC injections of 0.4 IU served as a positive control. Blood samples were withdrawn from the tip of the rat's tail at 0, 2, 4, and 6 hr post application, and glucose level was determined.

[7] = Plasma sCT after SC injection or printed patch with ViaDerm in pigs (Example 10); format: in vivo; conditions: for bioavailability: compared to SC
Procedure: Pigs (males, 10-12 kg, Large white) were treated as follows:
Group 1: 1 ml of salmon calcitonin containing 16.7 μg peptide (Miacalcin, Novartis Pharma Ag, Basle, Switzerland) was injected subcutaneously (S.C) to each pig (total 3 pigs).
Group 2: Each pig underwent 2 ViaDerm applications on one site on the back (150 micro-channels per cm^2). Patches of 400 μg sCT/patch of 1.4 cm^2 were placed on the treated area (total 3 pigs).
Group 3: Each pig underwent 2 ViaDerm applications on one site on the back (150 micro-channels per cm^2). Patches of 200 μg sCT/patch of 1.4 cm^2 were placed on the treated area (total 3 pigs).
In order to determine sCT concentrations in pig plasma an ELISA assay was performed (Diagnostic Systems Laboratories, Inc. Webster, Tex., USA).

[8] = tested on: plasma Ca++; test: In vivo bioactivity of sCT: plasma Ca++ concentrations in pigs (Example 10)
Procedure: In vivo bioactivity of sCT was evaluated by measuring plasma Ca^++ concentrations. […] Transdermal administration from the printed patches yielded a ˜20% decrease in Ca^++ concentrations, regardless of sCT dose. Thus, sCT delivered transdermally remained intact and biologically active.

[9] = Transdermal printed patch, dose 50 (mg)
[10] = Transdermal printed patch, dose 150 (mg)
[11] = Transdermal printed patch, dose 300 (mg)
[12] = Transdermal printed patch, dose 400 (mg)
[13] = Group 1: ViaDerm + ~0.8 mg rhGH powder patch
[14] = Group 3: SC injection 150 μg/rat
[15] = Group 1: ViaDerm + 0.15 mg printed patch
[16] = Group 2: ViaDerm + 0.5 mg printed patch
[17] = Transdermal printed patch, dose 75 μg
[18] = Transdermal printed patch, dose 150 μg
[19] = Transdermal printed patch, dose 300 μg
[20] = Transdermal printed patch, dose 450 μg
[21] = hyperglycemic rats, transdermal
[22] = diabetic rats, 1.5 IU insulin-printed patch on ViaDerm treated skin
[23] = diabetic rats, 1.5 IU insulin-printed patch on ViaDerm treated skin, from about 400 mg/dl

Compound: rhGH: recombinant human growth hormone, 22 kDa polypeptide; GENOTROPIN (Pharmacia & Upjohn) with mannitol
bioavailability compared to the SC group [1]: 33.8%
AUC normalized for 0.1 mg rhGH ([1]; sc): 1128 µg·h/mL
Bioavailability (% of SC) ([2]; SC, dose 50 (mg printed; reference)): 100 % of SC
AUC ([2]; SC, dose 50 (mg)): 176 ng·h/mL
AUC [2, 9]: 57 ng·h/mL
Bioavailability (% of SC) [2, 9]: 32.4 % of SC
AUC [2, 10]: 175 ng·h/mL
Bioavailability (% of SC) [2, 10]: 33.1 % of SC
AUC [2, 11]: 362 ng·h/mL
Bioavailability (% of SC) [2, 11]: 34.3 % of SC
AUC [2, 12]: 404 ng·h/mL
Bioavailability (% of SC) [2, 12]: 28.7 % of SC
IGF-1 in the serum [3, 13]: elevation of IGF-1
time of maximal average IGF-1 concentration [3, 13]: 12 h
IGF-1 in the serum ([3]; Group 2: rhGH patch on intact skin): low level of IGF-1
IGF-1 in the serum [3, 14]: anticipated elevation of IGF-1
time of peak IGF-1 concentration [3, 14]: 12 h
AUC absolute value [4, 15]: 1594 ng·h/mL
time of peak rhGH serum level [4, 15]: 4 h
AUC absolute value [4, 16]: 6563 ng·h/mL
time of peak rhGH serum level [4, 16]: 6 h
AUC ([5]; SC, dose 150 μg): 489 ng·h/mL
Bioavailability (% of SC) ([5]; SC, dose 150 μg (reference)): 100 % of SC
AUC [5, 17]: 184 ng·h/mL
Bioavailability (% of SC) [5, 17]: 75.3 % of SC
AUC [5, 18]: 376 ng·h/mL
Bioavailability (% of SC) [5, 18]: 76.9 % of SC
AUC [5, 19]: 727 ng·h/mL
Bioavailability (% of SC) [5, 19]: 74.3 % of SC
AUC [5, 20]: 884 ng·h/mL
Bioavailability (% of SC) [5, 20]: 60.3 % of SC

Compound: insulin: insulin given as SC injection of 0.4 IU, positive control; product not specified
blood glucose level after 6 hr ([6]; diabetic rats, SC injection 0.4 IU): about 200 mg/dl
blood glucose level three hours following administration ([6]; diabetic rats, SC injection 0.4 IU, from about 400 mg/dl): about 70 mg/dl
period of normal glucose level [6, 21]: 4 to 6 h
time to normal glucose level (100 mg/dl to 200 mg/dl glucose) [6, 21]: 1 to 3 h

Compound: HUMALOG®: human recombinant insulin Lispro, 100 IU/ml (Lilly), used in 1.5 IU printed patches
blood glucose level after 6 hr [6, 22]: about 30 mg/dl
blood glucose level three hours following application [6, 23]: about 70 mg/dl

Compound: HUMULIN®: human recombinant insulin, regular, 100 IU/ml (Lilly), used in 1.5 IU printed patches
blood glucose level after 6 hr [6, 22]: about 30 mg/dl
blood glucose level three hours following application [6, 23]: about 70 mg/dl

Amount delivered ([7]; Printed patch 400 μg): 31.92 µg
bioavailability ([7]; Printed patch 400 μg): 7.98%
AUC ([7]; S.C. 16.7 μg, neck): 206.377 ± 63.647 pg·min/mL
Cmax ([7]; male, Large white, pig, plasma, other: transdermal printed patch on ViaDerm-treated skin, 200 ug, patch 200 μg, ViaDerm, back): 2.33 ± 0.673 ng/mL
bioavailability ([7]; male, Large white, pig, plasma, other: transdermal printed patch on ViaDerm-treated skin, 200 ug, patch 200 μg, read-out: bioavailability): 10%
Cmax ([7]; male, Large white, pig, plasma, other: transdermal printed patch on ViaDerm-treated skin, 400 ug, Printed patch 400 μg, ViaDerm, back): 2.82 ± 1.74 ng/mL
bioavailability ([7]; male, Large white, pig, plasma, other: transdermal printed patch on ViaDerm-treated skin, 400 ug, Printed patch 400 μg, read-out: bioavailability): 8%
Cmax ([7]; male, Large white, pig, plasma, sc, 16.7 ug, S.C. 16.7 μg, neck): 2.21 ± 1.12 ng/mL
Amount delivered ([7]; patch 200 μg): 20.12 µg
bioavailability ([7]; patch 200 μg): 10.06%
Compound: CC(C)C[C@H](NC(=O)[C@H](CCCCN)NC(=O)CNC(=O)[C@H](CC(C)C)NC(=O)[C@@H](NC(=O)[C@@H]1CSSC[C@H](N)C(=O)N[C@@H](CO)C(=O)N[C@@H](CC(N)=O)C(=O)N[C@@H](CC(C)C)C(=O)N[C@@H](CO)C(=O)N[C@@H]([C@@H](C)O)C(=O)N1)C(C)C)C(=O)N[C@@H](CO)C(=O)N[C@@H](CCC(N)=O)C(=O)N[C@@H](CCC(=O)O)C(=O)N[C@@H](CC(C)C)C(=O)N[C@@H](Cc1c[nH]cn1)C(=O)N[C@@H](CCCCN)C(=O)N[C@@H](CC(C)C)C(=O)N[C@@H](CCC(N)=O)C(=O)N[C@H](C(=O)N[C@@H](Cc1ccc(O)cc1)C(=O)N1CCC[C@H]1C(=O)N[C@@H](CCCNC(=N)N)C(=O)N[C@H](C(=O)N[C@@H](CC(N)=O)C(=O)N[C@H](C(=O)NCC(=O)N[C@@H](CO)C(=O)NCC(=O)N[C@H](C(=O)N1CCC[C@H]1C(N)=O)[C@@H](C)O)[C@@H](C)O)[C@@H](C)O)[C@@H](C)O [sCT]
decrease of plasma Ca++ concentrations from time 0 ([8]; SC administration 16.7 μg): ~25%
decrease in plasma Ca++ concentrations ([8]; transdermal from printed patches, regardless of sCT dose (200 or 400 μg)): ~20%
